Measurements taken from the supplement of paper PMC12667976.

B1: library; numbered along this chain (parent)
chain: MATDAALRRLLRLHRTEIAVAVDSAFPLLHALADHDVVPEDKFQETLHLKEKEGCPQAFHALLSWLLTQDSTAILDFWRVLFKDYNLERYGRLQPILDSFPKDVDLSQPRKGRKPPAVPKALVPPPRLPTKRKASEEARAAAPAALTPRGTASPGSQLKAKPPKKPESSAEQQRLPLGNGIQTMSASVQRAVAMSSGDVPGARGAVEGILIQQVFESGGSKKCIQVGGEFYTPSKFEDSGSGKNKARSSSGPKPLVRAKGAQGAAPGGGEARLGQQGSVPAPLALPSDPQLHQKNEDECAVCRDGGELICCDGCPRAFHLACLSPPLREIPSGTWRCSSCLQATVQEVQPRAEEPRPQEPPVETPLPPGLRSAGEEVRGPPGEPLAGMDTTLVYKHLPAPPSAAPLPGLDSSALHPLLCVGPEGQQNLAPGARCGVCGDGTDVLRCTHCAAAFHWRCHFPAGTSRPGTGLRCRSCSGDVTPAPVEGVLAPSPARLAPGPAKDDTASHEPALHRDDLESLLSEHTFDGILQWAIQSMARPAAPFPS

Variants of: B1
Assay: AIRE transcriptional activation functional score (insulin promoter-GFP; nonsense median 0, synonymous median 1) (normalised score); higher = higher AIRE activity (more reporter activation)
Conditions: with insulin promoter-GFP reporter in HEK293
Description: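 Deep mutational scan of full-length human AIRE (codon-optimized cDNA, DT-POPCode NNN libraries over three regions) integrated at a Bxb1 landing pad in HEK293 cells carrying an insulin core promoter-GFP reporter at a Flp-In site. Cells were sorted for the top 10% GFP about 14 days after transfection. Variant frequency log-ratios (select vs non-select, TileSeq) were rescaled so that the nonsense median is 0 and the synonymous median is 1, then averaged over biological replicates.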

AIRE transcriptional activation functional score of substitutions, site by site:
A246: F 1.39 | W 1.47 | N 0.102 | C 1.22 | K 0.609 | S 0.759 | H 1.42 | I 0.408 | L 1 | T 0.841 | P 1.05 | Q -0.0407 | E 0.55 | R 0.482 | Y 1.43 | G 0.693 | V 1.12 | D 0.858
K245: F 1.67 | W 0.978 | A 1.33 | I 0.196 | N 0.375 | S 0.252 | E 0.245 | Y 1.21 | L 0.453 | D 0.145 | T -0.0733 | G 0.76 | M 0.0585 | H 1.35 | P 1.07 | R 0.472 | C 1 | Q 0.887 | V 1.32
K243: D 0.0348 | R 1.1 | M 1.31 | P 0.97 | Y -0.257 | N 1.06 | T 1.08 | Q 0.804 | W 1.3 | C 0.711 | L 1.47 | G 1.03 | I 1.02 | S 1 | E 0.511 | H 1.02 | V 0.856 | F 0.81 | A 0.56
K253: G 0.631 | I 0.921 | A 1.28 | V 0.867 | R 0.777 | P 0.292 | F 0.823 | T 0.479 | C 1.39 | D -0.542 | Y 0.499 | W 1.23 | N 0.817 | L 0.694 | M 1.04 | Q 1.95 | S 0.754 | E 0.587
R257: N -1.39 | L 0.834 | F 0.785 | K 0.866 | M 0.588 | A 0.916 | T 0.86 | G 0.771 | Q 0.729 | W 0.743 | I 0.805 | P 0.935 | D 1.16 | V 0.256 | C -0.159 | S 0.904 | E 1.12
R247: A 0.732 | N 0.919 | I 0.937 | T 0.898 | F 0.902 | K 1.2 | M 1.42 | C 1.05 | G 0.529 | Y 0.724 | Q 0.669 | V 1.16 | D 0.268 | S 0.966 | L 0.895 | W 0.502 | E 1.52 | P 0.344 | H -1.26
L255: W 1.1 | Q 1.01 | D 0.362 | Y 0.945 | G 1.24 | S 0.79 | I 0.98 | A 0.9 | M -0.804 | C 0.506 | V 1 | F 1.43 | N 0.614 | E 0.58 | R 0.419 | T 0.506 | H 1.28 | P 1.03
K259: E 0.714 | H 0.439 | G -0.585 | Y 1.31 | R 0.916 | D -0.753 | A 1.23 | L 0.941 | T 0.966 | N 1.03 | P 0.82 | I 0.551 | F 1.08 | Q 0.922 | S 0.917 | M 1.2 | C 1.33 | W 1.19
S250: H 0.963 | N 0.847 | K 0.556 | R 0.0524 | E 0.4 | Y 1.26 | M 1.68 | I 1.11 | C 1.23 | T 0.687 | A 0.792 | P -0.109 | D 0.427 | V 1.1 | L 1.02 | Q -0.615 | F 1.13 | W 0.939 | G 0.835
S249: E -0.0377 | I 1.25
